# Results reported in US20250188176A1.
# Target: canine IL-4RA (construct not given) (canine)
# Experiment: SPR, combinatorial Fab-SASA clone
Binder,Kd,koff,kon
"AHF21191 (Fab, V domains shown, not shown: small tags and cut ends) VH: EVQLVESGGDLVKPGGSLRLSCVASGFTFRDYAMTWVRQAPGKGLQWVSLINGSGGKTYYADAVKGRFTISRDNAKNTLYLQMNSLRAEDTAVYYCAVDRLTKTIRPQYYGLWHWGQGTLVTVSS VL: DIVMTQTPLSLSVSPGETASISCRSSQSLTYSIGYNYLDWYLQKPGQSPQGLIYLGSKRASGVPDRFSGSGSGTDFTLRISRVEANDTGVYYCMQGLQSPLGFGQGTKLEIKR",0.366 nM,9.48e-05 s⁻¹,259000 M⁻¹ s⁻¹
"AHF21194 (Fab, V domains shown, not shown: small tags and cut ends) VH: EVQLVESGGDLVKPGGSLRLSCVASGFTFRDYAMTWVRQAPGKGLQWVSLINGSGGKTYYADAVKGRFTISRDNAKNTLYLQMNSLRAEDTAVYYCAVDRLTKTIRPQYYGLWVWGQGTLVTVSS VL: DIVMTQTPLSLSVSPGETASISCRSSQSLLYSIGYNYLDWYLQKPGQSPQGLIYLGSKRASGVPDRFSGSGSGTDFTLRISRVEANDTGVYYCMQGLQSPLSFGQGTKLEIKR",0.627 nM,0.000133 s⁻¹,212000 M⁻¹ s⁻¹
"AHF21195 (Fab, V domains shown, not shown: small tags and cut ends) VH: EVQLVESGGDLVKPGGSLRLSCVASGFTFRDYAMTWVRQAPGKGLQWVSLINGSGGKTYYADAVKGRFTISRDNAKNTLYLQMNSLRAEDTAVYYCAVDRKTKTIRPQYYGLWVWGQGTLVTVSS VL: DIVMTQTPLSLSVSPGETASISCRSSQSLLYSIGYNYLDWYLQKPGQSPQGLIYLGSKRASGVPDRFSGSGSGTDFTLRISRVEANDTGVYYCMQGLQSPLSFGQGTKLEIKR",0.992 nM,0.000192 s⁻¹,193000 M⁻¹ s⁻¹
"AHF21199 (Fab, V domains shown, not shown: small tags and cut ends) VH: EVQLVESGGDLVKPGGSLRLSCVASGFTFRDYAMTWVRQAPGKGLQWVSLINGSGGKTYYADAVKGRFTISRDNAKNTLYLQMNSLRAEDTAVYYCAVDRLTKTIRPQYYGLWVWGQGTLVTVSS VL: DIVMTQTPLSLSVSPGETASISCRSSQSLTYSIGYNYLDWYLQKPGQSPQGLIYLGHKRASGVPDRFSGSGSGTDFTLRISRVEANDTGVYYCMQGLQSPLGFGQGTKLEIKR",0.395 nM,8.18e-05 s⁻¹,207000 M⁻¹ s⁻¹
"AHF21200 (Fab, V domains shown, not shown: small tags and cut ends) VH: EVQLVESGGDLVKPGGSLRLSCVASGFTFRDYAMTWVRQAPGKGLQWVSLINGSGGKTYYADAVKGRFTISRDNAKNTLYLQMNSLRAEDTAVYYCAVDRKTKTIRPQYYGLWVWGQGTLVTVSS VL: DIVMTQTPLSLSVSPGETASISCRSSQSLTYSIGYNYLDWYLQKPGQSPQGLIYLGSKRASGVPDRFSGSGSGTDFTLRISRVEANDTGVYYCMQPLQSPLSFGQGTKLEIKR",0.875 nM,0.000127 s⁻¹,146000 M⁻¹ s⁻¹
"AHF21201 (Fab, V domains shown, not shown: small tags and cut ends) VH: EVQLVESGGDLVKPGGSLRLSCVASGFTFRDYAMTWVRQAPGKGLQWVSLINGSGGKTYYADAVKGRFTISRDNAKNTLYLQMNSLRAEDTAVYYCAVDRLTKTIRPQYYGLWHWGQGTLVTVSS VL: DIVMTQTPLSLSVSPGETASISCRSSQSLLYSIGYNYLDWYLQKPGQSPQGLIYLGHKRASGVPDRFSGSGSGTDFTLRISRVEANDTGVYYCMQGLQSPLGFGQGTKLEIKR",0.44 nM,0.000151 s⁻¹,344000 M⁻¹ s⁻¹
